# Values joined by “and” are separate entries in the source; they are usually repeats but may differ in a detail not shown here. Identical values can stand only once.
# Experiments:
# [1] = biological target: recombinant human IL-5 protein with His tag (human) (UniProt P05113); assay: cell-based or functional assay
# [2] = biological target: recombinant human IL-5 protein (human) (UniProt P05113); assay: ELISA, biotin-human IL-5 on streptavidin plate, Ab 2.6667 nM
# [3] = biological target: recombinant human IL-5 protein (human) (UniProt P05113); assay: FACS blocking: biotin-IL-5 bound to CHOK1 IL-5Ra/CSF2RB cells, Ab 0.0004 nM
# [4] = biological target: recombinant human IL-5 protein (human) (UniProt P05113); assay: FACS blocking: biotin-IL-5 bound to CHOK1 IL-5Ra/CSF2RB cells, Ab 33.3333 nM
# [5] = biological target: recombinant human IL-5 protein (human) (UniProt P05113); assay: ELISA, biotin-human IL-5 on streptavidin plate, Ab 0.0213 nM
# [6] = biological target: recombinant human IL-5 protein (human) (UniProt P05113); assay: ELISA, biotin-human IL-5 on streptavidin plate, Ab 0.0009 nM
# [7] = biological target: recombinant human IL-5 protein (human) (UniProt P05113); assay: ELISA, biotin-human IL-5 on streptavidin plate, Ab 0.1067 nM
# [8] = biological target: recombinant human IL-5 protein (human) (UniProt P05113); assay: FACS blocking: biotin-IL-5 bound to CHOK1 IL-5Ra/CSF2RB cells, Ab 1.3333 nM
# [9] = biological target: recombinant human IL-5 protein (human) (UniProt P05113); assay: cell-based or functional assay
# [10] = biological target: recombinant human IL-5 protein (human) (UniProt P05113); assay: ELISA, biotin-human IL-5 on streptavidin plate, Ab 0.0043 nM
# [11] = biological target: recombinant human IL-5 protein (human) (UniProt P05113); assay: ELISA, biotin-human IL-5 on streptavidin plate, Ab 0.5333 nM
# [12] = biological target: recombinant human IL-5 protein (human) (UniProt P05113); assay: ELISA, biotin-human IL-5 on streptavidin plate, Ab 13.3333 nM
# [13] = biological target: recombinant human IL-5 protein (human) (UniProt P05113); assay: FACS blocking: biotin-IL-5 bound to CHOK1 IL-5Ra/CSF2RB cells, Ab 6.6667 nM
# [14] = biological target: recombinant human IL-5 protein (human) (UniProt P05113); assay: FACS blocking: biotin-IL-5 bound to CHOK1 IL-5Ra/CSF2RB cells, Ab 0.0021 nM
# [15] = biological target: recombinant human IL-5 protein (human) (UniProt P05113); assay: FACS blocking: biotin-IL-5 bound to CHOK1 IL-5Ra/CSF2RB cells, Ab 0.0533 nM
# [16] = biological target: recombinant human IL-5 protein (human) (UniProt P05113); assay: FACS blocking: biotin-IL-5 bound to CHOK1 IL-5Ra/CSF2RB cells, Ab 0.0107 nM
# [17] = biological target: recombinant human IL-5 protein (human) (UniProt P05113); assay: ELISA, biotin-human IL-5 on streptavidin plate, Ab 0.0002 nM
# [18] = biological target: recombinant human IL-5 protein (human) (UniProt P05113); assay: FACS blocking: biotin-IL-5 bound to CHOK1 IL-5Ra/CSF2RB cells, Ab 0.2667 nM
# [19] = biological target: recombinant human IL-5 protein with His tag (human) (UniProt P05113); assay: ELISA, biotin-human IL-5 on streptavidin; antibody 0.0213 nM
# [20] = biological target: recombinant human IL-5 protein with His tag (human) (UniProt P05113); assay: ELISA, biotin-human IL-5 on streptavidin; antibody 0.0043 nM
# [21] = biological target: recombinant human IL-5 protein with His tag (human) (UniProt P05113); assay: ELISA, biotin-human IL-5 on streptavidin; antibody 0.1067 nM
# [22] = biological target: recombinant human IL-5 protein with His tag (human) (UniProt P05113); assay: ELISA, biotin-human IL-5 on streptavidin; antibody 0.0009 nM
# [23] = biological target: recombinant human IL-5 protein with His tag (human) (UniProt P05113); assay: ELISA, biotin-human IL-5 on streptavidin; antibody 0.5333 nM
# [24] = biological target: recombinant human IL-5 protein with His tag (human) (UniProt P05113); assay: ELISA, biotin-human IL-5 on streptavidin; antibody 0.0002 nM
# [25] = biological target: recombinant human IL-5 protein with His tag (human) (UniProt P05113); assay: ELISA, biotin-human IL-5 on streptavidin; antibody 2.6667 nM
# [26] = biological target: recombinant human IL-5 protein with His tag (human) (UniProt P05113); assay: ELISA, biotin-human IL-5 on streptavidin; antibody 13.3333 nM
# [27] = biological target: recombinant human IL-5 protein (human) (UniProt P05113); assay: FACS, biotin-IL-5 bound to CHOK1 hIL-5Ra/CSF2RB cells with Ab 0.0021 nM
# [28] = biological target: recombinant human IL-5 protein (human) (UniProt P05113); assay: FACS, biotin-IL-5 bound to CHOK1 hIL-5Ra/CSF2RB cells with Ab 0.0004 nM
# [29] = biological target: recombinant human IL-5 protein (human) (UniProt P05113); assay: FACS, biotin-IL-5 bound to CHOK1 hIL-5Ra/CSF2RB cells with Ab 6.6667 nM
# [30] = biological target: recombinant human IL-5 protein (human) (UniProt P05113); assay: FACS, biotin-IL-5 bound to CHOK1 hIL-5Ra/CSF2RB cells with Ab 0.0107 nM
# [31] = biological target: recombinant human IL-5 protein (human) (UniProt P05113); assay: FACS, biotin-IL-5 bound to CHOK1 hIL-5Ra/CSF2RB cells with Ab 33.3333 nM
# [32] = biological target: recombinant human IL-5 protein (human) (UniProt P05113); assay: FACS, biotin-IL-5 bound to CHOK1 hIL-5Ra/CSF2RB cells with Ab 0.2667 nM
# [33] = biological target: recombinant human IL-5 protein (human) (UniProt P05113); assay: FACS, biotin-IL-5 bound to CHOK1 hIL-5Ra/CSF2RB cells with Ab 1.3333 nM
# [34] = biological target: recombinant human IL-5 protein (human) (UniProt P05113); assay: FACS, biotin-IL-5 bound to CHOK1 hIL-5Ra/CSF2RB cells with Ab 0.0533 nM
substance,measurement,setting,value
Mepolizumab (antibody),"TF1 (IC50), TF1 proliferation induced by IL-5",[1],10 pM
hIgG control (human IgG) (antibody),OD450 nm,[2],0.09 OD450 nm and 0.088 OD450 nm
same,Fluorescence intensity,[3],88 MFI
same,Fluorescence intensity,[4],84 MFI
same,OD450 nm,[5],0.079 OD450 nm and 0.076 OD450 nm
same,OD450 nm,[6],0.08 OD450 nm and 0.078 OD450 nm
same,OD450 nm,[7],0.078 OD450 nm
same,Fluorescence intensity,[8],84 MFI
same,"RLU, CTLL-2 proliferation with IL-5, Ab 0.000170667 nM",[9],57400 RLU and 51000 RLU
same,"RLU, CTLL-2 proliferation with IL-5, Ab 0.000853333 nM",[9],58600 RLU and 53800 RLU
same,"RLU, CTLL-2 proliferation with IL-5, Ab 0.004266667 nM",[9],57900 RLU and 48200 RLU
same,"RLU, CTLL-2 proliferation with IL-5, Ab 0.02133333 nM",[9],59800 RLU and 55900 RLU
same,"RLU, CTLL-2 proliferation with IL-5, Ab 0.1066667 nM",[9],58200 RLU and 53500 RLU
same,"RLU, CTLL-2 proliferation with IL-5, Ab 0.5333334 nM",[9],56200 RLU and 50500 RLU
same,"RLU, CTLL-2 proliferation with IL-5, Ab 2.666667 nM",[9],51200 RLU and 46200 RLU
same,"RLU, CTLL-2 proliferation with IL-5, Ab 13.33333 nM",[9],45800 RLU and 46300 RLU
same,"RLU, CTLL-2 proliferation with IL-5, Ab 66.66666 nM",[9],43200 RLU and 34400 RLU
same,"RLU, CTLL-2 proliferation with IL-5, Ab 3.41333E-05 nM",[9],58600 RLU and 55000 RLU
same,"RLU, TF-1 proliferation with IL-5, Ab 0.00001 nM",[9],113000 RLU and 118000 RLU
same,"RLU, TF-1 proliferation with IL-5, Ab 0.00003 nM",[9],112000 RLU and 116000 RLU
same,"RLU, TF-1 proliferation with IL-5, Ab 0.00017 nM",[9],112000 RLU and 121000 RLU
same,"RLU, TF-1 proliferation with IL-5, Ab 0.00085 nM",[9],115000 RLU and 117000 RLU
same,"RLU, TF-1 proliferation with IL-5, Ab 0.00427 nM",[9],116000 RLU and 127000 RLU
same,"RLU, TF-1 proliferation with IL-5, Ab 0.02133 nM",[9],108000 RLU and 131000 RLU
same,"RLU, TF-1 proliferation with IL-5, Ab 0.10667 nM",[9],108000 RLU and 114000 RLU
same,"RLU, TF-1 proliferation with IL-5, Ab 0.53333 nM",[9],103000 RLU and 106000 RLU
same,"RLU, TF-1 proliferation with IL-5, Ab 2.66667 nM",[9],101000 RLU and 106000 RLU
same,"RLU, TF-1 proliferation with IL-5, Ab 13.33333 nM",[9],101000 RLU and 102000 RLU
same,OD450 nm,[10],0.074 OD450 nm and 0.077 OD450 nm
same,OD450 nm,[11],0.079 OD450 nm and 0.078 OD450 nm
same,OD450 nm,[12],0.172 OD450 nm and 0.07 OD450 nm
same,Fluorescence intensity,[13],83 MFI
same,Fluorescence intensity,[14],83 MFI
same,Fluorescence intensity,[15],86 MFI
same,Fluorescence intensity,[16],85 MFI
same,OD450 nm,[17],0.082 OD450 nm and 0.08 OD450 nm
same,Fluorescence intensity,[18],88 MFI
mIgG control (antibody),OD450 nm,[19],0.074 and 0.079
same,OD450 nm,[20],0.078 and 0.072
same,OD450 nm,[21],0.08 and 0.079
same,OD450 nm,[22],0.075
same,OD450 nm,[23],0.08 and 0.077
same,OD450 nm,[24],0.076 and 0.075
same,OD450 nm,[25],0.079
same,OD450 nm,[26],0.108 and 0.115
mIgG control (mouse IgG) (antibody),Fluorescence intensity,[27],81
same,Fluorescence intensity,[28],86
same,Fluorescence intensity,[29],85
same,Fluorescence intensity,[30],83
same,Fluorescence intensity,[31],80
same,Fluorescence intensity,[32],84
same,"RLU, CTLL-2 cell proliferation stimulated by IL-5, Ab conc. 0.000170667 nM",[9],57400 RLU and 51000 RLU
same,"RLU, CTLL-2 cell proliferation stimulated by IL-5, Ab conc. 0.000853333 nM",[9],58600 RLU and 53800 RLU
same,"RLU, CTLL-2 cell proliferation stimulated by IL-5, Ab conc. 0.004266667 nM",[9],57900 RLU and 48200 RLU
same,"RLU, CTLL-2 cell proliferation stimulated by IL-5, Ab conc. 0.02133333 nM",[9],59800 RLU and 55900 RLU
same,"RLU, CTLL-2 cell proliferation stimulated by IL-5, Ab conc. 0.1066667 nM",[9],58200 RLU and 53500 RLU
same,"RLU, CTLL-2 cell proliferation stimulated by IL-5, Ab conc. 0.5333334 nM",[9],56200 RLU and 50500 RLU
same,"RLU, CTLL-2 cell proliferation stimulated by IL-5, Ab conc. 2.666667 nM",[9],51200 RLU and 46200 RLU
same,"RLU, CTLL-2 cell proliferation stimulated by IL-5, Ab conc. 13.33333 nM",[9],45800 RLU and 46300 RLU
same,"RLU, CTLL-2 cell proliferation stimulated by IL-5, Ab conc. 66.66666 nM",[9],43200 RLU and 34400 RLU
same,"RLU, CTLL-2 cell proliferation stimulated by IL-5, Ab conc. 3.41333E-05 nM",[9],58600 RLU and 55000 RLU
same,"RLU, TF-1 cell proliferation stimulated by IL-5, Ab conc. 0.00001 nM",[9],113000 RLU and 118000 RLU
same,"RLU, TF-1 cell proliferation stimulated by IL-5, Ab conc. 0.00003 nM",[9],112000 RLU and 116000 RLU
same,"RLU, TF-1 cell proliferation stimulated by IL-5, Ab conc. 0.00017 nM",[9],112000 RLU and 121000 RLU
same,"RLU, TF-1 cell proliferation stimulated by IL-5, Ab conc. 0.00085 nM",[9],115000 RLU and 117000 RLU
same,"RLU, TF-1 cell proliferation stimulated by IL-5, Ab conc. 0.00427 nM",[9],116000 RLU and 127000 RLU
same,"RLU, TF-1 cell proliferation stimulated by IL-5, Ab conc. 0.02133 nM",[9],108000 RLU and 131000 RLU
same,"RLU, TF-1 cell proliferation stimulated by IL-5, Ab conc. 0.10667 nM",[9],108000 RLU and 114000 RLU
same,"RLU, TF-1 cell proliferation stimulated by IL-5, Ab conc. 0.53333 nM",[9],103000 RLU and 106000 RLU
same,"RLU, TF-1 cell proliferation stimulated by IL-5, Ab conc. 2.66667 nM",[9],101000 RLU and 106000 RLU
same,"RLU, TF-1 cell proliferation stimulated by IL-5, Ab conc. 13.33333 nM",[9],101000 RLU and 102000 RLU
same,Fluorescence intensity,[33],83
same,Fluorescence intensity,[34],83

# — patent publication US20220010008A1
